These results are taken from patent publication US20040072207.

The test system of this data set is raptor (Regulatory Associated Protein of mTOR), endogenous human protein.

As to “mTOR (mammalian target of rapamycin), endogenous protein of human cell lines”, the “in vitro kinase activity of mTOR towards S6K1 (32P incorporation into GST-S6K1)” value is recorded as “the in vitro kinase activity of mTOR towards S6K1 inversely correlated with the amount of raptor recovered with mTOR”.
